Data from patent publication US20260115250A1, “METHODS OF TREATING AGE-RELATED MACULAR DEGENERATION” (Character Biosciences, Inc., priority 2022, published 2026).

Experiments:
[1] = DMPC solubility assay, 0.5 mM DMPC (turbidity reduction); assay type: biochemical; conditions: FIGS. 2A-2D and 3A-3C
Procedure: In this example, peptide stocks were diluted to 200 μM in H2O (a 2× solution) and 50 μL of peptide solution was transferred in triplicate into 96-well plates. A one mM solution of 1,2-dimyristoyl-sn-glycero-3-phosphocholine (DMPC) in H2O was prepared, and using a multichannel pipet, 50 μL DMPC solution was rapidly added to the plate. Peptide and lipid solutions were incubated at room temperature for 15 minutes with a final concentration of 100 μM peptides and 0.5 mM DMPC. After 15 minutes, absorbance was read on a plate reader at 405 nm. […] Data are presented as mean+SD over two runs.
In these experiments, DMPC solubility titration curves were generated. Peptide stocks were diluted to 200 μM in H2O (a 2× solution) and serially diluted in H2O over 4 concentrations, then 50 μL of peptide solutions were distributed in triplicate into 96-well plates. A 1 mM solution of 1,2-dimyristoyl-sn-glycero-3-phosphocholine (DMPC) in H2O was prepared, and using a multichannel pipet, 50 μL DMPC solution was rapidly added to the plate. Peptide and lipid solutions were incubated at room temperature for 15 minutes with final concentrations of 3.16-100 μM peptides and 0.5 mM DMPC. After 15 minutes, absorbance was read on a plate reader at 405 nm. […] Data are presented as mean+SD over two runs. Non-linear regression was used to calculate EC50 values.

[2] = test system: ARPE-19 cells; test: ARPE-19 GAG-dependent cholesterol import (with or without heparin); assay type: cell-based, human; conditions: ARPE-19, 10 μM peptide
Procedure: ARPE-19 cells were seeded on 96-well plates at 25,000 cells per well and grown to confluence. A 2× solution of 500 μM DMPC and 50 μM BODIPY-Cholesterol with or without 100 µg/mL heparin was prepared in serum free DMEM: F12. Peptides were diluted to 20 μM in serum free DMEM: F12 (a 2× solution). Peptides were added to lipid solution in equal parts (60 μL each) and incubated for 1 hour at 37° C. ARPE-19 cells were serum starved in serum free DMEM: F12 for 1 hour at 37° C. Peptide: Lipid complexes (100 μL total volume per well) were transferred to ARPE-19 cells for 2 hours at 37° C. Cells were washed, fixed, and intracellular fluorescence was read on Promega GloMax at 475 nm excitation, 500-550 emission. Fluorescence values were background corrected from no treatment conditions. Data are presented ±SD for 2 runs.

[3] = target: LDLR (Homo sapiens, UniProt P01130); test: lipid-dependent LDLR binding (SPR), single concentration; conditions: 1 μM peptide with or without 25 μM DMPC
Procedure: Peptides were diluted in 1×HBS-N buffer with 1 mM CaCl2 to a final concentration of 1 μM and incubated with or without 25 μM DMPC for 1 hour at RT to form lipid complexes. Each peptide was tested in duplicate. LDLR was diluted to 10 μg/mL in 10 mM acetate buffer pH 4.5 and was immobilized (˜400RU) on a CM5 chip via amine coupling utilizing 1×HBS-P+ buffer with 1 mM CaCl2. Test peptides (with or without DMPC) were exposed to immobilized LDLR at a flow rate of […] for 120 seconds in HBS-N with 1 mM CaCl2. Between cycles the surface was regenerated with 3, 30 second injections of 10 mM NaOH and 100 mM EDTA. Data are plotted as max RU values, averaged from three separate runs.

[4] = peptide binding to non-oxidized and oxidized lipids (SPR); conditions: immobilized peptide; RU normalized to DMPC
Procedure: FIGS. 25A-25O show peptide binding activity to non-oxidized and oxidized lipids via SPR for indicated peptides. Peptides were reconstituted to 50 μg/mL in 10 mM acetate buffer, pH 4.5 and immobilized to ˜200 RU on a CM5 chip via amine coupling. Non-oxidized lipids (DMPC & POPC) and oxidized lipids (POVPC & KOdiA-PC) were diluted to 100 µM in HBS-EP running buffer and exposed to the chip for binding (n=3) at a flow rate of […] for 120 seconds. The surface was regenerated with 20% EtOH. T-001 served as a positive control and T-031 served as a negative control on each chip. For each peptide, the RU response for all lipids was normalized to the DMPC RU values.

Sequence of LDLR (P01130 22-860): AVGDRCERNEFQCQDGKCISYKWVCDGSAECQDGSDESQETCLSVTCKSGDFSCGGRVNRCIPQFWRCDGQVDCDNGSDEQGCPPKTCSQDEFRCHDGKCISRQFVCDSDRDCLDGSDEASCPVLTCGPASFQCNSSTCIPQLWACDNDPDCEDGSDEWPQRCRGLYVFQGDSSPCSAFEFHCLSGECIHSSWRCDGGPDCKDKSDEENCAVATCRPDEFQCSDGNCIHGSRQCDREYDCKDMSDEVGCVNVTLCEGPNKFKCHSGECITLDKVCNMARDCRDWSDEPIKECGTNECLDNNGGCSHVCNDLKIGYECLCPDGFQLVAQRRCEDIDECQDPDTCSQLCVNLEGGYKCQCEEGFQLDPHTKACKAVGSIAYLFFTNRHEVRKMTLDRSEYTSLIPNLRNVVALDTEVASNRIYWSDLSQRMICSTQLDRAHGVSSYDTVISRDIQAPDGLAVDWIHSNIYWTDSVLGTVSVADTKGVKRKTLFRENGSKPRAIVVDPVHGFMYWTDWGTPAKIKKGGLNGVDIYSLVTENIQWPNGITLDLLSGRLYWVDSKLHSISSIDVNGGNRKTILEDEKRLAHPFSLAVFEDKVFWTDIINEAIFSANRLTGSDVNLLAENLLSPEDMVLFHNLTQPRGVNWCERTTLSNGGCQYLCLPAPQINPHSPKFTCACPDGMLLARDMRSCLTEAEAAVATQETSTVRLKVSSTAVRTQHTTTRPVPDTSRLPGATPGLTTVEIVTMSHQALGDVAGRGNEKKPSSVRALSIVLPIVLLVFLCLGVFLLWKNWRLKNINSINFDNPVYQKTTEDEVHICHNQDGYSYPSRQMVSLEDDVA

lipid-dependent LDLR binding (RU with lipid vs peptide alone) [3]: lipid-dependent LDLR binding activity
B1: T-013: therapeutic peptide (peptide)
chain: TRARLSKELQAAQARLGADMEDVRGRLVQYRGEVQAMLGQSTEELRVRLASHLRKLRKRLLRDADDLQKRLAVYQA
DMPC solubilizing activity [1]: significant activity
GAG dependence of cholesterol import [2]: rely on GAG binding for cholesterol import activity
binding to oxidized lipids relative to DMPC [4]: binding to at least one oxidized lipid that was equivalent or improved to binding against DMPC
